Data: paper PMC4786784 (Nature Communications, 2016)

Experiments:
[1] = biological target: T1, full-length human U2AF^65 (residues 1–475) (human, UniProt P26368-1 1-475); assay: SEC; U2AF65 combined with slight excess U2AF35-UHM (ratio 1:1.2), dialysed overnight, heterodimer purified on Superdex-200 prep-grade in 150 mM NaCl, 25 mM HEPES pH 6.8, 0.2 mM TCEP; details: both partners purified
T1 construct: U2AF65 (U2AF2), human, full length, residues 1-475; also called flU2AF^65; U2AF2; source: expressed as a GST fusion protein, purified (GST cleavage, SP-HiTrap ion exchange)
T1 sequence (P26368 whole entry, the tested form may be a part): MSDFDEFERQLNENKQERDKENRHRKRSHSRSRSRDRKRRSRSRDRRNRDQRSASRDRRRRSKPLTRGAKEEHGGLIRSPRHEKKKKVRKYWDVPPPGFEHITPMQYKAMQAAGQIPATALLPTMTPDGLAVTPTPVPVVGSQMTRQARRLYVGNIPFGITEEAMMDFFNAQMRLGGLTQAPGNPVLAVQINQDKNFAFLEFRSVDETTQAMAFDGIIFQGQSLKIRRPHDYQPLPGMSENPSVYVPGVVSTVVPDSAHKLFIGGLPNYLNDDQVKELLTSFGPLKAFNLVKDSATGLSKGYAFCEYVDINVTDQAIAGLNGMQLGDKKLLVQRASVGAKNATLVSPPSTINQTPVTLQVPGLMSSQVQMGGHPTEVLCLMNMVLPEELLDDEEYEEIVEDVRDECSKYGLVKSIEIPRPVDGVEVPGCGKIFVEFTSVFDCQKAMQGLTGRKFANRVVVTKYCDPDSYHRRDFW

U2AF65 1,2L Q147A = U2AF65 1,2L Q147A (human, UniProt P26368 141-342, Q147A); assay: fluorescence anisotropy; Anisotropy: 100 mM NaCl, 15 mM HEPES pH 6.8, 0.2 mM TCEP, 0.1 U/ul Superase-In, 30 nM RNA, 23 C; smFRET: 50 mM HEPES pH 7.4, 100 mM NaCl, room temperature
Chain of U2AF65 1,2L Q147A (P26368 141-342 Q147A, one chain of several): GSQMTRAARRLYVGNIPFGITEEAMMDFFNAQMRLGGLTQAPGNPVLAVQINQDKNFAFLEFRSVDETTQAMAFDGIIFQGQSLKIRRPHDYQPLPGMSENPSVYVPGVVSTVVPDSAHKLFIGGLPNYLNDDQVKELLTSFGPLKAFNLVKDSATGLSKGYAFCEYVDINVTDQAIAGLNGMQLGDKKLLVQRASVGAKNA

U2AF65 1,2L NLALA = U2AF65 1,2L NLALA (human, UniProt P26368 141-342, S251N;T252L;V253A;V254L;P255A); assay: as above
Chain of U2AF65 1,2L NLALA (P26368 141-342 S251N/T252L/V253A/V254L/P255A, one chain of several): as the sequence (P26368 141-342 Q147A, one chain of several) above, with A7Q, S111N, T112L, V113A, V114L, P115A counted along it

U2AF65 1,2L 3Mut = U2AF65 1,2L 3Mut (human, UniProt P26368 141-342, Q147A;R227A;V254P); assay: as above
Chain of U2AF65 1,2L 3Mut (P26368 141-342 Q147A/R227A/V254P, one chain of several): as the sequence (P26368 141-342 Q147A, one chain of several) above, with R87A, V114P counted along it

flU2AF65;U2AF35-UHM = flU2AF65;U2AF35-UHM (human;human, UniProt P26368;Q01081 1-475;43-146, |); assay: as above
Chain of flU2AF65;U2AF35-UHM (P26368 whole entry, one chain of several): as the sequence (P26368 whole entry, the tested form may be a part) above

U2AF65 1,2L 3Gly = U2AF65 1,2L 3Gly (human, UniProt P26368 141-342, V249G;V250G;V254G); assay: as above
Chain of U2AF65 1,2L 3Gly (P26368 141-342 V249G/V250G/V254G, one chain of several): as the sequence (P26368 141-342 Q147A, one chain of several) above, with A7Q, V109G, V110G, V114G counted along it

U2AF65 1,2L 5Gly = U2AF65 1,2L 5Gly (human, UniProt P26368 141-342, S251G;T252G;V253G;V254G;P255G); assay: as above
Chain of U2AF65 1,2L 5Gly (P26368 141-342 S251G/T252G/V253G/V254G/P255G, one chain of several): as the sequence (P26368 141-342 Q147A, one chain of several) above, with A7Q, S111G, T112G, V113G, V114G, P115G counted along it

U2AF65 1,2L V254P = U2AF65 1,2L V254P (human, UniProt P26368 141-342, V254P); assay: as above
Chain of U2AF65 1,2L V254P (P26368 141-342 V254P, one chain of several): as the sequence (P26368 141-342 Q147A, one chain of several) above, with A7Q, V114P counted along it

dU2AF65 1,2L = dU2AF65 1,2L (human, UniProt P26368 141-342, del238-257); assay: as above
Chain of dU2AF65 1,2L (P26368 other isoform, or with tags, fused parts or gaps del238-257): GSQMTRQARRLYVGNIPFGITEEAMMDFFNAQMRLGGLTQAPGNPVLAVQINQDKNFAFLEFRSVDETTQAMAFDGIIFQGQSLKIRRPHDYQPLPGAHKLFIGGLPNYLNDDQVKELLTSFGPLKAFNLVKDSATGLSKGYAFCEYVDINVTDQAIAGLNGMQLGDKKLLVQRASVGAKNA

dU2AF65 1,2 = dU2AF65 1,2 (human, UniProt P26368 148-336, del238-257); assay: as above
Chain of dU2AF65 1,2 (P26368 other isoform, or with tags, fused parts or gaps del238-257): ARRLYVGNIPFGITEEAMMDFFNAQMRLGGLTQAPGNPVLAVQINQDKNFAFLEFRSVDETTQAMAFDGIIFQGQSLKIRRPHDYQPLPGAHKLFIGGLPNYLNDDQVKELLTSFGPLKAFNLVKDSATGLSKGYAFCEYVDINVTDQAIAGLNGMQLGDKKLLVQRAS

U2AF65 1,2L R227A = U2AF65 1,2L R227A (human, UniProt P26368 141-342, R227A); assay: as above
Chain of U2AF65 1,2L R227A (P26368 141-342 R227A, one chain of several): as the sequence (P26368 141-342 Q147A, one chain of several) above, with A7Q, R87A counted along it

U2AF65 1,2L 12Gly = U2AF65 1,2L 12Gly (human, UniProt P26368 141-342, M144G;L235G;M238G;V244G;V246G;V249G;V250G;S251G;T252G;V253G;V254G;P255G); assay: as above
Chain of U2AF65 1,2L 12Gly (P26368 141-342 M144G/L235G/M238G/V244G/V246G/V249G/V250G/S251G/T252G/V253G/V254G/P255G, one chain of several): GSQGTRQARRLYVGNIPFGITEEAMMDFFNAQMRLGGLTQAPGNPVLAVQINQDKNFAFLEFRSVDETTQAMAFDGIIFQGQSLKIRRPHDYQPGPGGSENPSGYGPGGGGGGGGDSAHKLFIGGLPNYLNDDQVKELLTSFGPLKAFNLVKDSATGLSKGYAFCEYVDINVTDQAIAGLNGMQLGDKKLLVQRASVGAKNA

U2AF65 1,2L [2] = biological target: T2, U2AF65 1,2L (human, UniProt P26368 141-342); assay: as above
T2 sequence (P26368 141-342, one chain of several): as the sequence (P26368 141-342 Q147A, one chain of several) above, with A7Q counted along it

U2AF65 1,2L FRET [3] = biological target: T3, U2AF65 1,2L FRET (human, UniProt P26368 113-343, A181C;C305A;Q324C); assay: smFRET; slide-tethered protein, 5 uM RNA; Anisotropy: 100 mM NaCl, 15 mM HEPES pH 6.8, 0.2 mM TCEP, 0.1 U/ul Superase-In, 30 nM RNA, 23 C; smFRET: 50 mM HEPES pH 7.4, 100 mM NaCl, room temperature
T3 sequence (P26368 113-343 A181C/C305A/Q324C, one chain of several): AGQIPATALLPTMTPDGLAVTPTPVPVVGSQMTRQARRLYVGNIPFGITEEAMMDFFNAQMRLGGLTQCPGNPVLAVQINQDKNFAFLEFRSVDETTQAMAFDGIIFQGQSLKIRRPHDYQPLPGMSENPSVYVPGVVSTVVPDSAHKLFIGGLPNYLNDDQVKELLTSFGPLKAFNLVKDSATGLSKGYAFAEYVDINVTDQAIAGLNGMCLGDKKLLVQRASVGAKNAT

U2AF65 1,2L FRET [4] = biological target: T3, U2AF65 1,2L FRET; assay: smFRET; slide-tethered protein, 10 uM RNA; Anisotropy: 100 mM NaCl, 15 mM HEPES pH 6.8, 0.2 mM TCEP, 0.1 U/ul Superase-In, 30 nM RNA, 23 C; smFRET: 50 mM HEPES pH 7.4, 100 mM NaCl, room temperature
U2AF65 1,2L [5] = biological target: T2, U2AF65 1,2L; assay: fluorescence anisotropy; Anisotropy: 100 mM NaCl, 15 mM HEPES pH 6.8, 0.2 mM TCEP, 0.1 U/ul Superase-In, 30 nM RNA, 23 C; smFRET: 50 mM HEPES pH 7.4, 100 mM NaCl, room temperature; remark: listed apart in the source

B1: U2AF^35-UHM (U2AF homology motif; residues 43–146) (domain or fragment, UniProt Q01081-1 43-146, looked up)
chain: SQTIALLNIYRNPQNSSQSADGLRCAVSDVEMQEHYDEFFEEVFTEMEEKYGEVEEMNVCDNLGDHLVGNVYVKFRREEDAEKAVIDLNNRWFNGQPIHAELSP
notes: also called heterodimerization domain of the U2AF^35 subunit; U2AF1; source: expressed as a GST fusion protein, purified (GST cleavage, Q-HiTrap ion exchange)
- binding result [1]: binds

Binder: CCCUUUUUUUUCC (ssRNA) [AdML Py tract 13mer]
- Kd (U2AF65 1,2L Q147A): 171 ± 21 nM
- Kd (U2AF65 1,2L NLALA): 45 ± 3 nM
- Kd (U2AF65 1,2L 3Mut): 5630 ± 70 nM
- Kd (flU2AF65;U2AF35-UHM): 30 ± 3 nM
- Kd (U2AF65 1,2L 3Gly): 47 ± 4 nM
- Kd (U2AF65 1,2L 5Gly): 61 ± 3 nM
- Kd (U2AF65 1,2L V254P): 137 ± 10 nM
- Kd (dU2AF65 1,2L): 123 ± 5 nM
- Kd (dU2AF65 1,2): 5000 ± 100 nM
- Kd (U2AF65 1,2L R227A): 166 ± 2 nM
- Kd (U2AF65 1,2L 12Gly): 88 ± 21 nM

Binder: CUUUUUAAUUUCC (ssRNA) [AdML Py tract rArA mutant]
- binding signal (U2AF65 1,2L [2]): ~5 fold lower affinity than AdML

Binder: CCUUUUUUUUCC (ssRNA) [AdML Py tract 12mer]
- binding result (U2AF65 1,2L FRET [3]): binds

Binder: CUUUUUAAUUUCCA (ssRNA) [rArA-interrupted Py tract]
- binding result (U2AF65 1,2L FRET [4]): binds

Binder: CCUUUUCCCCCCC (ssRNA) [5'-4rU]
- Kd (flU2AF65;U2AF35-UHM): 41 ± 2 nM
- Kd (U2AF65 1,2L [5]): 31 ± 3 nM

Binder: CCCCCCCUUUUCC (ssRNA) [3'-4rU]
- Kd (flU2AF65;U2AF35-UHM): 414 ± 12 nM
- Kd (U2AF65 1,2L [5]): 417 ± 10 nM
